Reference: patent US20030120037A1 (published 2003)

Assays:
[1] = biological target: FPRL1, seven-transmembrane G-protein coupled receptor (human) (UniProt P25090); test: cell-based or functional assay
[2] = biological target: T1, FPRL1, seven-transmembrane G-protein coupled receptor (human, UniProt P25090 1-351); test: Homologous displacement binding on human monocytes (native cells): constant 125I-SAA plus increasing unlabeled SAA, LIGAND/Scatchard analysis. The filing names FPRL1 as the SAA receptor on phagocytes; the receptor on monocytes is not isolated in this panel.
T1 construct: whole, on cells; also called FPRH2; LXA4R
T1 sequence (looked up): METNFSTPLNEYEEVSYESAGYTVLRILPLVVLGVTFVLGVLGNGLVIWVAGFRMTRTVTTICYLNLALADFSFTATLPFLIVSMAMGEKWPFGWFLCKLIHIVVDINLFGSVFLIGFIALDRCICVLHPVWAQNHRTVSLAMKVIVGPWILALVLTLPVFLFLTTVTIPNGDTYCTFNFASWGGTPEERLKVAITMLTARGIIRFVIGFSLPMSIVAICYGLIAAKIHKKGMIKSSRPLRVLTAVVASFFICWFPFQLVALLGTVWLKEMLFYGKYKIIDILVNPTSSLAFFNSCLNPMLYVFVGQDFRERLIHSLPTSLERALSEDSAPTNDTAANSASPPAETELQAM
Method: (§1) The data was analyzed and plotted using LIGAND software on a Macintosh computer.
(§2) After incubation, the cells were washed once with ice-cold PBS then were layered onto a 10% sucrose/PBS cushion in Eppendorf tubes. The cells were centrifuged at 10,000 g for 1 min and the tips of the tubes containing cell pellets were cut and measured for radioactivity in a y-counter.

[3] = biological target: T2, FPR, classical formyl peptide receptor (human, UniProt P21462 1-350); test: binding of radiolabeled SAA to receptor-transfected cells
T2 construct: whole, on cells; also called FPR/293 cells
T2 sequence (looked up): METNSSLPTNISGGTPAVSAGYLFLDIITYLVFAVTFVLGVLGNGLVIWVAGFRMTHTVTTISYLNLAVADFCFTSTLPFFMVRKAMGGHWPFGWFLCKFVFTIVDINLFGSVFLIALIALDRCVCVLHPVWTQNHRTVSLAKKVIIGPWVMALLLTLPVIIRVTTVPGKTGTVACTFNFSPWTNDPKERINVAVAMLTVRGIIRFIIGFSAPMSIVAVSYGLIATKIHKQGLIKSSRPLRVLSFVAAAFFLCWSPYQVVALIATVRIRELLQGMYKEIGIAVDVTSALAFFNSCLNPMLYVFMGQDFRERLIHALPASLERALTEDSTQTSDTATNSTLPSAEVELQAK

[4] = biological target: T1, FPRL1, seven-transmembrane G-protein …; test: radioligand binding on FPRL1/293 cells; 16 nM 125I-SAA with increasing unlabeled SAA; LIGAND analysis; FPRL1/293 cells; saturation/LIGAND estimate, 42000 sites/cell
Method: as §1, §2

[5] = biological target: T1, FPRL1, seven-transmembrane G-protein …; test: displacement of 125I-SAA from FPRL1/293 cells by unlabeled SAA (the same value is told for monocytes and neutrophils); homologous displacement of 125I-SAA by unlabeled SAA; FPRL1/293 cells
Method: as §1, §2

Molecule: N-formyl-methionyl-leucyl-phenylalanine (peptide)
- Ca2+ mobilization in FPRL1 transfected cells (FPRL1/293 cells) [1]: 10 µM

B1: 125I-labeled recombinant human serum amyloid A (ligand)
chain: MRSFFSFLGEAFDGARDMWRAYSDMREANYIGSDKYFHARGNYDAAKRGPGGVWAAEAISNARENIQRFFGRGAEDSLADQAANEWGRSGKDPNHFRPAGLPEKY
modifications: radio-iodinated on tyrosine and lysine residues with the chloramine T method (125I)
notes: specific activity 5.8 mCi/mg; also called radioiodinated SAA
- Kd [2]: 34 nM
- binding result [3]: no binding
- Kd [4]: 64 nM

B2: Recombinant human (rh) serum amyloid A (SAA) (ligand)
chain: MRSFFSFLGEAFDGARDMWRAYSDMREANYIGSDKYFHARGNYDAAKRGPGGVWAAEAISNARENIQRFFGRGAEDSLADQAANEWGRSGKDPNHFRPAGLPEKY
notes: Bought from Pepro Tech; also called rhSAA; unlabeled SAA
- IC50 [5]: ~50 nM
